{"source": "patent US20130064834A1", "about": "(published 2013)", "binders": {"B1": {"name": "H1H316P (antibody, V domains shown)", "VH": "EVQLVESGGGLVQPGGSLRLSCAASGFTFNNYAMNWVRQAPGKGLDWVSTISGSGGTTNYADSVKGRFIISRDSSKHTLYLQMNSLRAEDTAVYYCAKDSNWGNFDLWGRGTLVTVSS", "VL": "not shown", "notes": "Fully human mAb made in CHO cells; also called mAb316P"}, "B2": {"name": "H1M300N (antibody, V domains shown)", "VH": "EMQLVESGGGLVQPGGSLRLSCAASGFTFSSHWMKWVRQAPGKGLEWVANINQDGSEKYYVDSVKGRFTISRDNAKNSLFLQMNSLRAEDTAVYYCARDIVLMVYDMDYYYYGMDVWGQGTTVTVSS", "VL": "not shown", "notes": "Fully human version made in CHO cells"}}, "key": {"[1]": {"molecular_target": "T1, his-tagged Syrian golden hamster (Mesocricetus auratus) PCSK9 (Syrian golden hamster (Mesocricetus …))", "T1 construct": "also called maPCSK9-h; maPCSK9", "T1 chain": "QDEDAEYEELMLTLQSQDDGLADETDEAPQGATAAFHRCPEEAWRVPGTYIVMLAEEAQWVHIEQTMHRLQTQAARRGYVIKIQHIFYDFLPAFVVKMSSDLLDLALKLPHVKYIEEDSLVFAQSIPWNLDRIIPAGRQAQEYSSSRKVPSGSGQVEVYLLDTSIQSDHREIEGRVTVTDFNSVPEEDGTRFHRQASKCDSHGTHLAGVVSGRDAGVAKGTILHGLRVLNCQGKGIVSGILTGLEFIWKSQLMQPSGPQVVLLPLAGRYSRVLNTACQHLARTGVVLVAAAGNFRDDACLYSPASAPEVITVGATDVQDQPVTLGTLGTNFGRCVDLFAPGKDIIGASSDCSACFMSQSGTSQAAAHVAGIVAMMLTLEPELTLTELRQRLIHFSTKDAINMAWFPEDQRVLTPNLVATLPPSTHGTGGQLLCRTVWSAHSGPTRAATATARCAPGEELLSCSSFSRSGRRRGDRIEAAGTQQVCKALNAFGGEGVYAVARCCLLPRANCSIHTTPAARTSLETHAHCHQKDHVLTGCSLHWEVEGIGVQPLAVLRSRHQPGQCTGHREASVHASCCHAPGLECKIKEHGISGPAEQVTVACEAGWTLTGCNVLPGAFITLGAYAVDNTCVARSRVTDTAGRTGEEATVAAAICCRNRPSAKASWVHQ", "assay": "SPR, mAb amine-coupled, 25C, pH 7.4", "excerpt": "(§1) Briefly, mAbs were immobilized onto BIACORE™ CM5 sensor chips via amine coupling."}, "[2]": {"molecular_target": "T2, mouse PCSK9, myc-myc-his tagged (mouse, UniProt Q80W65 35-694)", "T2 construct": "also called mPCSK9-mmh; mPCSK9", "assay": "SPR, mAb amine-coupled, 25C, pH 7.4", "excerpt": "as §1"}, "[3]": {"molecular_target": "T3, rat (Rattus norvegicus) PCSK9, myc-myc-his tagged (rat (Rattus norvegicus), UniProt P59996 31-691)", "T3 construct": "also called rPCSK9-mmh; rPCSK9", "T3 sequence (P59996 31-691 limits assumed)": "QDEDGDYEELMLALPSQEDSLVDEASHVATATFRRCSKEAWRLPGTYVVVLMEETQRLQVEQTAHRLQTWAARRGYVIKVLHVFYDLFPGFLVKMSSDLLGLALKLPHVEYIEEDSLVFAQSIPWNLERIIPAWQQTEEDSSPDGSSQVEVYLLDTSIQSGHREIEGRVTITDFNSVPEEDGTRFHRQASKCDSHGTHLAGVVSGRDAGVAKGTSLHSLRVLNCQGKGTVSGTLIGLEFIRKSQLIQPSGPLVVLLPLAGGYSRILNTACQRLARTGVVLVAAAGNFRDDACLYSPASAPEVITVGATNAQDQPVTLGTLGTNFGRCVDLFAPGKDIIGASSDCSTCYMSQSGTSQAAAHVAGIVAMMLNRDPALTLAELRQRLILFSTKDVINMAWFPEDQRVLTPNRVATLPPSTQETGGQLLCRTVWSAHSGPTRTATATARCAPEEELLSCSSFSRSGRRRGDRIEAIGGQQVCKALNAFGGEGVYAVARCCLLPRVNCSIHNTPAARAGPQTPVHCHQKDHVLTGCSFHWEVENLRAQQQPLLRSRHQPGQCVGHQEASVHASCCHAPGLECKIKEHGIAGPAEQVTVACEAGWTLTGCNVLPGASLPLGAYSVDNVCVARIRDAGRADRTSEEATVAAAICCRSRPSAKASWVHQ", "assay": "SPR, mAb amine-coupled, 25C, pH 7.4", "excerpt": "as §1"}, "hPCSK9(D238R)": {"molecular_target": "T4, hPCSK9(D238R) (human, UniProt Q8NBP7 31-692)", "T4 construct": "mmh-tagged variant hPCSK9", "assay": "SPR, mAb captured, 25C", "excerpt": "(§2) Each selected antibody was captured on a F(ab′)2 anti-hIgG surface created through direct chemical coupling to a BIACORE™ chip to form a captured antibody surface."}, "[4]": {"molecular_target": "T5, tagged rhesus monkey (Macaca mulata) PCSK9 (rhesus monkey (Macaca mulata), UniProt A8T666 31-692)", "T5 construct": "also called mmPCSK9-mmh; mmPCSK9", "T5 sequence (A8T666 31-692 limits assumed)": "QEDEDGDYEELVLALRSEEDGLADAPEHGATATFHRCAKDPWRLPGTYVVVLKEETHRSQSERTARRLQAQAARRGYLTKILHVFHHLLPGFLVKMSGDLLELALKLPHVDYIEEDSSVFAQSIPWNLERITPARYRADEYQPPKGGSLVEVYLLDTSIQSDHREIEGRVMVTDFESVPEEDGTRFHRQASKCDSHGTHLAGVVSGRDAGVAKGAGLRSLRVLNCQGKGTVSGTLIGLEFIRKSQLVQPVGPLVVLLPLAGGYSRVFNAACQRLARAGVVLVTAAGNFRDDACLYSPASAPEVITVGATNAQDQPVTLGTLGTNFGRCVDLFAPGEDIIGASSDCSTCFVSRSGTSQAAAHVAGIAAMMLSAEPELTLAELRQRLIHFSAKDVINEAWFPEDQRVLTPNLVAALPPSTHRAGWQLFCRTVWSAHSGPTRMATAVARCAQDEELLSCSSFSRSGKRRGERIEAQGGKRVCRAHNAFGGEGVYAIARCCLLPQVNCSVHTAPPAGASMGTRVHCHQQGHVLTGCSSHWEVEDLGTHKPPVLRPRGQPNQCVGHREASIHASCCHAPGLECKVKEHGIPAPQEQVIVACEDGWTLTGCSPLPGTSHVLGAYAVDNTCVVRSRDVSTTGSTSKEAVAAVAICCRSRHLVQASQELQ", "assay": "SPR, 25C"}, "[5]": {"molecular_target": "T3, rat (Rattus norvegicus) PCSK9, …", "assay": "SPR, mAb captured on anti-hFc, 25C"}, "[6]": {"molecular_target": "T1, his-tagged Syrian golden hamster …", "assay": "SPR, mAb captured on anti-hFc, 37C"}, "[7]": {"molecular_target": "T5, tagged rhesus monkey (Macaca mulata) …", "assay": "SPR, mAb captured on anti-hFc, 37C"}, "[8]": {"molecular_target": "T6, cynomolgus monkey (Macaca fascicularis) PCSK9, myc-myc-his tagged (cynomolgus monkey (Macaca fascicularis), UniProt A8T662 31-692 (Macaca nemestrina entry), limits assumed)", "T6 construct": "also called mfPCSK9-mmh; mfPCSK9", "T6 sequence (A8T662 31-692 limits assumed)": "as the sequence (A8T666 31-692 limits assumed) above, with P607A, K639E counted along it", "assay": "SPR, mAb captured on anti-hFc, 37C"}, "Human PCSK9-myc-myc-his [9]": {"molecular_target": "T7, Human PCSK9-myc-myc-his (human, UniProt Q8NBP7 31-692)", "T7 construct": "also called hPCSK9-mmh; hPCSK9", "assay": "SPR, mAb captured on anti-hFc, 37C"}, "[10]": {"molecular_target": "T3, rat (Rattus norvegicus) PCSK9, …", "assay": "SPR, mAb captured on anti-hFc, 37C"}, "[11]": {"molecular_target": "T1, his-tagged Syrian golden hamster …", "assay": "SPR, mAb amine-coupled, 37C, pH 7.4", "excerpt": "as §1"}, "[12]": {"molecular_target": "T2, mouse PCSK9, myc-myc-his tagged", "assay": "SPR, mAb amine-coupled, 37C, pH 7.4", "excerpt": "as §1"}, "[13]": {"molecular_target": "T3, rat (Rattus norvegicus) PCSK9, …", "assay": "SPR, mAb amine-coupled, 37C, pH 7.4", "excerpt": "as §1"}, "[14]": {"molecular_target": "T2, mouse PCSK9, myc-myc-his tagged", "assay": "SPR, mAb amine-coupled, 37C, pH 5.5", "excerpt": "as §1"}, "[15]": {"molecular_target": "T3, rat (Rattus norvegicus) PCSK9, …", "assay": "SPR, mAb amine-coupled, 37C, pH 5.5", "excerpt": "as §1"}, "[16]": {"molecular_target": "T1, his-tagged Syrian golden hamster …", "assay": "SPR, mAb amine-coupled, 25C, pH 5.5", "excerpt": "as §1"}, "[17]": {"molecular_target": "T2, mouse PCSK9, myc-myc-his tagged", "assay": "SPR, mAb amine-coupled, 25C, pH 5.5", "excerpt": "as §1"}, "[18]": {"molecular_target": "T3, rat (Rattus norvegicus) PCSK9, …", "assay": "SPR, mAb amine-coupled, 25C, pH 5.5", "excerpt": "as §1"}, "Human PCSK9-myc-myc-his [19]": {"molecular_target": "T7, Human PCSK9-myc-myc-his", "assay": "SPR, mAb captured, 37C", "description": "Each selected antibody was captured at a flowrate of 2 μl/min for 6 min on a goat anti-human IgG polyclonal antibody surface created through direct chemical coupling to a BIACORE™ chip to form a captured antibody surface."}, "hPCSK9(E366K)": {"molecular_target": "T8, hPCSK9(E366K) (human, UniProt Q8NBP7 31-692)", "T8 construct": "mmh-tagged variant hPCSK9", "assay": "SPR, mAb captured, 25C", "excerpt": "as §2"}}, "data": [{"binder": "B1", "values": [{"measurement": "Kd", "setting": "[1]", "value": 8.35, "unit": "nM"}, {"measurement": "T1/2", "setting": "[1]", "value": 8, "unit": "min"}, {"measurement": "Kd", "setting": "[2]", "value": 4.46, "unit": "nM"}, {"measurement": "T1/2", "setting": "[2]", "value": 10, "unit": "min"}, {"measurement": "Kd", "setting": "[3]", "value": 24.1, "unit": "nM"}, {"measurement": "T1/2", "setting": "[3]", "value": 2, "unit": "min"}, {"measurement": "fold reduction of binding affinity against wildtype hPCSK9", "setting": "hPCSK9(D238R)", "value": "> 400", "unit": "fold"}, {"measurement": "fold shortening of T1/2 against wildtype hPCSK9", "setting": "hPCSK9(D238R)", "value": "~30", "unit": "fold"}, {"measurement": "T1/2", "setting": "[4]", "value": 51, "unit": "min"}, {"measurement": "koff", "setting": "[4]", "value": 0.000229, "unit": "s⁻¹"}, {"measurement": "Kd", "setting": "[5]", "value": 14.5, "unit": "nM"}, {"measurement": "T1/2", "setting": "[5]", "value": 2, "unit": "min"}, {"measurement": "Kd", "setting": "[6]", "value": 19, "unit": "nM"}, {"measurement": "T1/2", "setting": "[6]", "value": 1, "unit": "min"}, {"measurement": "Kd", "setting": "[7]", "value": 1.8, "unit": "nM"}, {"measurement": "T1/2", "setting": "[7]", "value": 21, "unit": "min"}, {"measurement": "Kd", "setting": "[8]", "value": 1.8, "unit": "nM"}, {"measurement": "T1/2", "setting": "[8]", "value": 11, "unit": "min"}, {"measurement": "Kd", "setting": "Human PCSK9-myc-myc-his [9]", "value": 1.8, "unit": "nM"}, {"measurement": "T1/2", "setting": "Human PCSK9-myc-myc-his [9]", "value": 9, "unit": "min"}, {"measurement": "Kd", "setting": "[10]", "value": 37.5, "unit": "nM"}, {"measurement": "T1/2", "setting": "[10]", "value": 1, "unit": "min"}, {"measurement": "Kd", "setting": "[11]", "value": 21.7, "unit": "nM"}, {"measurement": "T1/2", "setting": "[11]", "value": 2, "unit": "min"}, {"measurement": "Kd", "setting": "[12]", "value": 12.2, "unit": "nM"}, {"measurement": "T1/2", "setting": "[12]", "value": 3, "unit": "min"}, {"measurement": "Kd", "setting": "[13]", "value": 55.1, "unit": "nM"}, {"measurement": "T1/2", "setting": "[13]", "value": 2, "unit": "min"}, {"measurement": "Kd", "setting": "[14]", "value": 13.6, "unit": "nM"}, {"measurement": "T1/2", "setting": "[14]", "value": 3, "unit": "min"}, {"measurement": "Kd", "setting": "[15]", "value": 0.399, "unit": "nM"}, {"measurement": "T1/2", "setting": "[15]", "value": 1, "unit": "min"}, {"measurement": "Kd", "setting": "[16]", "value": 0.087, "unit": "nM"}, {"measurement": "T1/2", "setting": "[16]", "value": 8, "unit": "min"}, {"measurement": "Kd", "setting": "[17]", "value": 0.063, "unit": "nM"}, {"measurement": "T1/2", "setting": "[17]", "value": 11, "unit": "min"}, {"measurement": "Kd", "setting": "[18]", "value": 0.349, "unit": "nM"}, {"measurement": "T1/2", "setting": "[18]", "value": 5, "unit": "min"}, {"measurement": "Kd", "setting": "Human PCSK9-myc-myc-his [19]", "value": 1.08, "unit": "nM"}, {"measurement": "T1/2", "setting": "Human PCSK9-myc-myc-his [19]", "value": 11, "unit": "min"}]}, {"binder": "B2", "values": [{"measurement": "fold reduction of binding against wildtype hPCSK9", "setting": "hPCSK9(E366K)", "value": "~50", "unit": "fold"}]}]}
